Columns and labels:
[1] = target: PARP1 - Nuc165 complex (Alexa488-labelled PARP1 bound to a recombinant nucleosome with DNA linker ends of 7 and 11 base pairs) (UniProt P09874); assay: FRET or BRET; Alexa647-HPF1 (0.6-10,000 nM, […] dilutions) titrated into Alexa488-PARP1 premixed with Nuc165 (20 nM) and DMSO (control, no olaparib); binding buffer 50 mM Tris-HCl pH 8.0, 50 mM NaCl, 1 mM MgCl2, 0.1 mM EDTA, 0.01% IGEPAL; 384-well plate
[2] = target: PARP1 - Nuc165 complex (Alexa488-labelled PARP1 bound to a recombinant nucleosome with DNA linker ends of 7 and 11 base pairs) (UniProt P09874); assay: FRET or BRET; as a1 but with olaparib (1 uM): Alexa647-HPF1 titrated into Alexa488-PARP1 premixed with Nuc165 (20 nM) and olaparib; binding buffer

PARP1 - Nuc165 complex (Alexa488-labelled PARP1 bound to a recombinant nucleosome with DNA linker ends of 7 and 11 base pairs), sequence (P09874 whole entry, looked up, one chain of several): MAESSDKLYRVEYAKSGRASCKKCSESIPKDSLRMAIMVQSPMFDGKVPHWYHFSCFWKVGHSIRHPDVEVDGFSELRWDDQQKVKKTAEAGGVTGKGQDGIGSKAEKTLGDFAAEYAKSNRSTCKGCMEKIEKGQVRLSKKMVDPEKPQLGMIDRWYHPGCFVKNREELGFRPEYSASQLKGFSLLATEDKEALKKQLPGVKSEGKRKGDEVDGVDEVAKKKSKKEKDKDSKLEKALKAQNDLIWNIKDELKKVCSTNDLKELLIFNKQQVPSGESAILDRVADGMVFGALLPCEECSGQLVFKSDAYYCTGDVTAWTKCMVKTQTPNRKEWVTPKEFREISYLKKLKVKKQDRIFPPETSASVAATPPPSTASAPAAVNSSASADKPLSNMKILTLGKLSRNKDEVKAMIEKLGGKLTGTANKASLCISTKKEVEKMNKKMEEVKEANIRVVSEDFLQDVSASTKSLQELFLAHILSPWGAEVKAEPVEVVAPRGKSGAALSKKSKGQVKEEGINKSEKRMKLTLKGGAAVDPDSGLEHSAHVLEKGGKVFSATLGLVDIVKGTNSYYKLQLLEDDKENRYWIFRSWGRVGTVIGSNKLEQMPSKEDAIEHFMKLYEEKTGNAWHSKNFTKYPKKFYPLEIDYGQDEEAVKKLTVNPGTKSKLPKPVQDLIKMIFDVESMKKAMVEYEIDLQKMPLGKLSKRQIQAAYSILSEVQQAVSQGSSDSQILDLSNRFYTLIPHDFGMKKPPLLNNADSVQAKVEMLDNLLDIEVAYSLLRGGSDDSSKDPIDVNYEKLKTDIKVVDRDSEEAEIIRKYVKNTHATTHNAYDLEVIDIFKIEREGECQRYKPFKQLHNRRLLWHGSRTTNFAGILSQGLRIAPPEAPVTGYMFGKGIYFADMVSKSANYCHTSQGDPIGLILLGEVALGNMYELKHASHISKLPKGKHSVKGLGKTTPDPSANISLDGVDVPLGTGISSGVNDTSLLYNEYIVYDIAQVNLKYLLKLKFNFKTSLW

Kd [1]: 790 nM
Kd [2]: 229 nM
B1: Histone PARylation factor 1 (HPF1), labelled with Alexa647 (natural protein)
chain: LRKEVENHYKLSLPEDFYHFWKFCEELDPEKPSDSLSASLGLQLVGPYDILAGKHKTKKKSTGLNFNLHWRFYYDPPEFQTIIIGDNKTQYHMGYFRDSPDEFPVYVGINEAKKNCIIVPNGDNVFAAVKLFLTKKLREITDKKKINLLKNIDEKLTEAARELGYSLEQRTVKMKQRDKKVVTKTFHGAGLVVPVDKNDVGYRELPETDADLKRICKTIVEAASDEERLKAFAPIQEMMTFVQFANDECDYGMGLELGMDLFCYGSHYFHKVAGQLLPLAYNLLKRNLFAEIIEEHLANRSQENIDQLAA
modifications: Alexa647 C2 maleimide label (extent of labeling typically 50-100%)

— article PMC7854685, “Histone Parylation factor 1 contributes to the inhibition of PARP1 by cancer drugs” (Nature Communications, 2021)
